The target of test [1] is anti-VEGF/ANG2 antibody (IgG1 subclass with mutations P329G/L234A/L235A/I253A/H310A/H435A) [IgG part: P01857]. Briefly: sandwich ELISA assay A; capture M1.7.10-Bi; antibody 1 at 2 ng/mL.
For test [2], the target named is anti-VEGF/ANG2 antibody (wild-type IgG1 subclass) [IgG part: P01857]. The test can be described thus: sandwich ELISA assay A; capture M1.7.10-Bi; antibody 5 at 3 ng/mL.
Test [3] has as its target anti-VEGF/ANG2 antibody (IgG1 subclass with mutations P329G/L234A/L235A/I253A/H310A/H435A) [IgG part: P01857]. Briefly: sandwich ELISA assay A; capture M1.7.10-Bi; antibody 1 at 13 ng/mL.
The target is the same in test [4]. The test can be described thus: sandwich ELISA assay A; capture M1.7.10-Bi; antibody 1 at 50 ng/mL.
Test [5] deals with anti-VEGF/ANG2 antibody (wild-type IgG1 subclass) [IgG part: P01857]. Briefly: sandwich ELISA assay A; capture M1.7.10-Bi; antibody 5 at 13 ng/mL.
For test [6], the target named is anti-VEGF/ANG2 antibody (IgG1 subclass with mutations P329G/L234A/L235A) [IgG part: P01857]. Briefly: sandwich ELISA assay A; capture M1.7.10-Bi; antibody 2 at 100 ng/mL.
Test [7] addresses anti-IGF-1R antibody (IgG1 subclass with mutations I253A/H310A/H435A) [IgG part: P01857]. The test can be described thus: sandwich ELISA assay A; capture M1.7.10-Bi; antibody 3 at 100 ng/mL.
Test [8] has as its target anti-P-Selectin antibody (IgG4 subclass with mutations S228P/L235E) [IgG part: P01861]. The test can be described thus: sandwich ELISA assay A; capture M1.7.10-Bi; antibody 4 at 0 ng/mL (blank).
Test [9] concerns the target anti-IGF-1R antibody (IgG1 subclass with mutations I253A/H310A/H435A) (human) [IgG part: P01857]. Briefly: sandwich ELISA assay C; capture on SA plate; tracer FcγRI-Dig; analyte 3 ng/mL.
In test [10] the target is anti-P-Selectin antibody (IgG4 subclass with mutations S228P/L235E) (human) [IgG part: P01861]. The test is described as above.
Test [11] has as its target anti-VEGF/ANG2 antibody (IgG1 subclass with mutations P329G/L234A/L235A) (human) [IgG part: P01857]. The description is as above.
Test [12] concerns the target anti-VEGF/ANG2 antibody (IgG1 subclass with mutations P329G/L234A/L235A/I253A/H310A/H435A) (human) [IgG part: P01857]. Described as above.
Test [13] deals with anti-IGF-1R antibody (IgG1 subclass with mutations I253A/H310A/H435A) (human) [IgG part: P01857]. Briefly: sandwich ELISA assay C; capture on SA plate; tracer FcγRI-Dig; analyte 6 ng/mL.
Test [14] addresses anti-P-Selectin antibody (IgG4 subclass with mutations S228P/L235E) (human) [IgG part: P01861]. Described as above.
Test [15] deals with anti-VEGF/ANG2 antibody (IgG1 subclass with mutations P329G/L234A/L235A) (human) [IgG part: P01857]. Described as above.
Test [16] has as its target anti-VEGF/ANG2 antibody (IgG1 subclass with mutations P329G/L234A/L235A/I253A/H310A/H435A) (human) [IgG part: P01857]. Described as above.
Test [17] concerns the target anti-IGF-1R antibody (IgG1 subclass with mutations I253A/H310A/H435A) (human) [IgG part: P01857]. Briefly: sandwich ELISA assay B; capture on SA plate; tracer M1.7.10-Dig; analyte 3 ng/mL.
For test [18], the target named is anti-P-Selectin antibody (IgG4 subclass with mutations S228P/L235E) (human) [IgG part: P01861]. The test is described as above.
For test [19], the target named is anti-VEGF/ANG2 antibody (IgG1 subclass with mutations P329G/L234A/L235A) (human) [IgG part: P01857]. Described as above.
Test [20] has as its target anti-VEGF/ANG2 antibody (IgG1 subclass with mutations P329G/L234A/L235A/I253A/H310A/H435A) (human) [IgG part: P01857]. The test is described as above.
For test [21], the target named is anti-IGF-1R antibody (IgG1 subclass with mutations I253A/H310A/H435A) (human) [IgG part: P01857]. Briefly: sandwich ELISA assay C; capture on SA plate; tracer FcγRI-Dig; analyte 0 ng/mL (blank).
The target in test [22] is anti-P-Selectin antibody (IgG4 subclass with mutations S228P/L235E) (human) [IgG part: P01861]. The test is described as above.
Test [23] concerns the target anti-VEGF/ANG2 antibody (IgG1 subclass with mutations P329G/L234A/L235A) (human) [IgG part: P01857]. Described as above.
The target in test [24] is anti-VEGF/ANG2 antibody (IgG1 subclass with mutations P329G/L234A/L235A/I253A/H310A/H435A) (human) [IgG part: P01857]. Described as above.

B1: anti-variant (human) Fc-region antibody M1.3.17 (antibody, V domains shown)
VH: EVKLLESGGGLVQPGGSLKLSCAASGIDFRRYWMNWVRQAPGKGLEWIGEIDPDSSTINYTPSLKDKFIISRDNAKNTMYLQMRKVRSEDTALYYCARPYDYGAWFAYWGQGTLVTVSA
VL: QAVVTQESALTTSPGETVTLTCRSTTGAVTTSNYANWVQEKPDHLFTGLIGGTNKRAPGVPARFSGSLIGDKAALTITGAQTEDEAIYFCALWYSDHWVFGGGTKLTVL
For the molecule B1, the signal [OD405 nm] in test [1] stood at 0.043 OD405 nm; in test [2], 0.033 OD405 nm; in test [3], 0.04 OD405 nm; in [4], 0.043 OD405 nm; in test [5], 0.038 OD405 nm; in test [6] it was 3.04 OD405 nm. In addition, the signal [OD405 nm] in test [7] was determined as 0.047 OD405 nm; in [8], 0.036 OD405 nm; in test [9] it was 1.21 OD405 nm; in [10], 1.19 OD405 nm; in test [11], 1.22 OD405 nm; in test [12], 1.16 OD405 nm. The signal [OD405 nm] in test [13] was 1.21 OD405 nm; in test [14] it was 1.18 OD405 nm; in [15] it was 1.22 OD405 nm; in test [16], 1.17 OD405 nm; in test [17], 0.047 OD405 nm; in [18], 0.05 OD405 nm. The signal [OD405 nm] in test [19] was 0.165 OD405 nm; in [20], 0.036 OD405 nm; in test [21], 1.22 OD405 nm; in test [22], 1.19 OD405 nm; in test [23] it was 1.23 OD405 nm; in test [24] it was 1.18 OD405 nm.

B2: anti-variant (human) Fc-region antibody M1.7.24 (antibody, V domains shown)
VH: EVKLLESGGGLVQPGGSLKLSCAASGFDFSRYWMNWVRQAPGKGLEWIGEITPDSSTINYTPSLKDKFIISRDNAKNTLYLQMIKVRSEDTALYYCVRPYDYGAWFASWGQGTLVTVSA
VL: QAVVTQESALTTSPGETVTLTCRSSTGAVTTSNYANWVQEKPDHLFTGLIGGTNKRAPGVPARFSGSLIGDKAALTITGAQTEDEAIYFCALWYSNHWVFGGGTKLTVL
As for B2, the signal [OD405 nm] in test [1] worked out at 0.042 OD405 nm; in test [2] it was 0.038 OD405 nm; in test [3], 0.047 OD405 nm; in test [4], 0.051 OD405 nm; in [5] it was 0.042 OD405 nm; in test [6], 2.65 OD405 nm. Also, the signal [OD405 nm] came out at 0.06 OD405 nm in [7]; 0.045 OD405 nm in test [8]; 0.077 OD405 nm in test [9]; 0.053 OD405 nm in test [10]; 0.057 OD405 nm in test [11]; 0.094 OD405 nm in test [12]. For the same molecule, the signal [OD405 nm] in [13] is 0.069 OD405 nm; in test [14], 0.053 OD405 nm; in test [15] it was 0.06 OD405 nm; in [16], 0.079 OD405 nm; in [17], 0.046 OD405 nm; in test [18] it was 0.031 OD405 nm. The signal [OD405 nm] was 2.51 OD405 nm in test [19]; 0.04 OD405 nm in test [20]; 0.086 OD405 nm in [21]; 0.076 OD405 nm in test [22]; 0.092 OD405 nm in [23]; 0.076 OD405 nm in test [24].

B3: anti-AAA variant Fc-region antibody M1.6.22 (antibody, V domains shown)
VH: EVQLVESGGDLVKPGGSLKLSCAASGFTFSSYGMSWVRQTPDKRLEWVATISSGGSYIYYPDSVKGRFTISRDNAKNTLYLQMSSLKSEDTAMYYCARLGMITTGYAMDYWGQGTSVTVSS
VL: DVLMTQTPLSLPVSLGDQASISCRSSQTIVHSTGHTYLEWFLQKPGQSPKLLIYKVSNRFSGVPDRFSGSGSGTDFTLKISRVEAEDLGVYYCFQGSHVPYTFGGGTKLEIK
In the case of B3, the signal [OD405 nm] in test [1] was 0.055 OD405 nm; in test [2], 0.039 OD405 nm; in test [3], 0.061 OD405 nm; in test [4], 0.06 OD405 nm; in test [5] it was 0.045 OD405 nm; in test [6], 0.076 OD405 nm. The signal [OD405 nm] in test [7] came to 2.89 OD405 nm; in [8], 0.043 OD405 nm; in [9], 0.083 OD405 nm; in test [10], 0.05 OD405 nm; in test [11] it was 0.068 OD405 nm; in test [12], 0.066 OD405 nm. Also, the signal [OD405 nm] in [13] worked out at 0.104 OD405 nm; in test [14] it was 0.051 OD405 nm; in test [15] it was 0.06 OD405 nm; in test [16] it was 0.06 OD405 nm; in test [17], 2.26 OD405 nm; in test [18], 0.039 OD405 nm. Also, the signal [OD405 nm] in test [19] worked out at 0.044 OD405 nm; in test [20] it was 0.039 OD405 nm; in test [21], 0.069 OD405 nm; in test [22], 0.077 OD405 nm; in test [23], 0.064 OD405 nm; in [24] it was 0.077 OD405 nm.

The values above are taken from US20180346602A1.
